From patent US20070286806A1, “Methods and Compositions for Modulating a Steroid Receptor” (Mount Sinai Hospital, priority 2004, published 2007)

System: G5-Luc reporter
Assay: Mammalian two-hybrid system with G5-Luc reporter
Assay type: cell-based, Syrian hamster
Conditions: SHM cells
Protocol: FIG. 2. PSF interacts with PR in vivo. (A) 293T cells were transient transfected with an expression vector for PRB and/or His-PSF for 18 hours, followed by lysis in NETN buffer with NaCl at 150 mM. Whole cell lysate (WCL) was incubated with PR antibody (C-20, Santa Cruz) or anti-His tag antibody (H-15, Santa Cruz), using protein A/G-sepharose as an absorbent. Resins were washed with NETN containing 100 mM NaCl, and bound proteins were detected by western blotting with antibodies to PR (C-20) or His-PSF (H-15). (B) Western blots of PSF (left) and PR (right) in immunoprecipitates of control mouse IgG or mouse anti-PR (AB52) or anti-PSF (B92) antibody from extracts of T47D cells. […] Luciferase activity was measured and normalized by β-galatosidase activity. […]
For immunoprecipitation of the endogenous PR and PSF, T47D cells cultured in 150 mm dishes were lysed in 800 μl NETN buffer containing 150 mM NaCl plus protease inhibitor cocktail. […] Gels were treated with Enhancer (NEN, Boston, US) dried and analyzed by autoradiography. • Cell culture and transient transfection: SHM cells and 293T cells were maintained in DMEM plus 5% FCS (Sigma) as described before (22). […] Luciferase activity was determined by using the luciferin reagent (Promega) according to manufacture's protocol. […]

B1: pM-PSF: PSF fused to C-terminus of Gal4-DBD in pM vector (protein)
chain: MKLLSSIEQACDICRLKKLKCSKEKPKCAKCLKNNWECRYSPKTKRSPLTRAHLTEVESRLERLEQLFLLIFPREDLDMILKMDSLQDIKALLTGLFVQDNVNKDAVTDRLASVETDMPLTLRQHRISATSSSEESSNKGQRQLTVSMSRDRFRSRGGGGGGFHRRGGGGGRGGLHDFRSPPPGMGLNQNRGPMGPGPGQSGPKPPIPPPPPHQQQQQPPPQQPPPQQPPPHQPPPHPQPHQQQQPPPPPQDSSKPVVAQGPGPAPGVGSAPPASSSAPPATPPTSGAPPGSGPGPTPTPPPAVTSAPPGAPPPTPPSSGVPTTPPQAGGPPPPPAAVPGPGPGPKQGPGPGGPKGGKMPGGPKPGGGPGLSTPGGHPKPPHRGGGEPRGGRQHHPPYHQQHHQGPPPGGPGGRSEEKISDSEGFKANLSLLRRPGEKTYTQRCRLFVGNLPADITEDEFKRLFAKYGEPGEVFINKGKGFGFIKLESRALAEIAKAELDDTPMRGRQLRVRFATHAAALSVRNLSPYVSNELLEEAFSQFGPIERAVVIVDDRGRSTGKGIVEFASKPAARKAFERCSEGVFLLTTTPRPVIVEPLEQLDDEDGLPEKLAQKNPMYQKERETPPRFAQHGTFEYEYSQRWKSLDEMEKQQREQVEKNMKDAKDKLESEMEDAYHEHQANLLRQDLMRRQEELRRMEELHNQEMQKRKEMQLRQEEERRRREEEMMIRQREMEEQMRRQREESYSRMGYMDPRERDMRMGGGGAMNMGDPYGSGGQKFPPLGGGGGIGYEANPGVPPATMSGSMMGSDMRTERFGQGGAGPVGGQGPRGMGPGTPAGYGRGREEYEGPNKKPRF
Question: Which “luciferase activity on co-transfection with VP16-PRA and VP16-PRB” value (G5-Luc, ligand-independent) does the source give for B1 here?
Answer: dramatic increase of luciferase activity

Question: What about the “reduction in luciferase activity compared to pM empty vector” value (co-transfected with G5-Luc) of the same molecule?
Answer: 70%
